This note sets out measurements from article PMC7608914.

In this assay the target is Alexa488-labeled Nuc165 (human). Description: fluorescence polarisation; HPF1 titrated from 16.8 μM to 0 μM into 5 nM Alexa488-labeled Nuc165; 50 mM Tris-HCl pH 8, 50 mM NaCl, 1 mM MgCl2, 0.1 mM EDTA, 0.1 mM TCEP, 0.01% NP-40; Hill model. For orientation: Polarisation of emitted light reports the rotation of a fluorescent probe.

B1: Histone PARylation Factor 1 (natural protein)
chain: MVGGGGKRRPGGEGPQCEKTTDVKKSKFCEADVSSDLRKEVENHYKLSLPEDFYHFWKFCEELDPEKPSDSLSASLGLQLVGPYDILAGKHKTKKKSTGLNFNLHWRFYYDPPEFQTIIIGDNKTQYHMGYFRDSPDEFPVYVGINEAKKNCIIVPNGDNVFAAVKLFLTKKLREITDKKKINLLKNIDEKLTEAARELGYSLEQRTVKMKQRDKKVVTKTFHGAGLVVPVDKNDVGYRELPETDADLKRICKTIVEAASDEERLKAFAPIQEMMTFVQFANDECDYGMGLELGMDLFCYGSHYFHKVAGQLLPLAYNLLKRNLFAEIIEEHLANRSQENIDQLAA
What is called Kd is a measure of binding affinity in units of concentration. The low end stands for higher affinity, the high end for lower affinity. The molecule B1 showed a Kd of 1450 nM.
